Where “and” joins values, the source holds several entries; their conditions need not be identical. Identical values can stand only once.
Assays:
RAGE C2 domain (human) [1] = assay: native MS; about 10 uM protein; 100 mM ammonium acetate for V_C1 and C2, 500 mM for V_C1_C2; nano-ESI
RAGE C2 domain (human) [2] = assay: ESI-MS under denaturing conditions; 50% acetonitrile and 0.1% formic acid added to the protein sample
RAGE C2 domain (human) [3] = assay: AUC; sedimentation velocity, 20 C, 40,000 rpm, 25 mM Tris pH 7.5, 200 mM NaCl, absorbance 280 nm; c(s) distribution (bimodal f/f0 for C2)
RAGE C2 domain (human) [4] = assay: SEC-MALS; Superdex 200 Increase 10/300, 25 mM Tris-Cl, 0.2 M NaCl, pH 8.0, room temperature, no detergent; C2 fractions re-chromatographed separately
[5] = molecular target: RAGE C2_TM_CT (C2 domain, transmembrane region and cytoplasmic tail) (human); assay: ESI-MS under denaturing conditions; 50% acetonitrile and 0.1% formic acid added to the protein sample
[6] = molecular target: RAGE C2_TM_CT (C2 domain, transmembrane region and cytoplasmic tail) (human); assay: SEC-MALS; Superdex 200 Increase 10/300, 25 mM Tris-Cl, 0.2 M NaCl, pH 8.0, with 2x CMC DDM, room temperature; 'protein conjugate' analysis (ASTRA) of protein and detergent masses
[7] = molecular target: RAGE C2_TM_CT Mutant 1 (four glycines in the region of the GxxxG motif mutated to alanine) (human); assay: as above
[8] = molecular target: RAGE C2_TM_CT Mutant 2 (six amino acids that cover the GxxxG motif deleted) (human); assay: as above
[9] = molecular target: RAGE V_C1 (V and C1 domains) (human); assay: native MS; about 10 uM protein; 100 mM ammonium acetate for V_C1 and C2, 500 mM for V_C1_C2; nano-ESI
[10] = molecular target: RAGE V_C1_C2 (extracellular part of RAGE) (human); assay: as above
[11] = molecular target: RAGE V_C1_C2 (extracellular part of RAGE) (human); assay: AUC; sedimentation velocity, 20 C, 40,000 rpm, 25 mM Tris pH 7.5, 200 mM NaCl, absorbance 280 nm; c(s) distribution (bimodal f/f0 for C2)
[12] = molecular target: full-length RAGE (receptor for advanced glycation end-products) (human) (UniProt Q15109); assay: native MS; FL_RAGE about 10 uM in 600 mM ammonium acetate with 0.04% (2x CMC) Triton X-100; nano-ESI, collisional release from the micelle
[13] = molecular target: full-length RAGE (receptor for advanced glycation end-products) (human) (UniProt Q15109); assay: AUC; sedimentation velocity, 20 C, 42,000 rpm, 25 mM Tris pH 7.5, 200 mM NaCl with DDM; absorbance 280 nm and interference; f/fo analysis with the GUSSI Membrane Protein module for FL_RAGE

RAGE C2 domain (domain or fragment)
fraction of dimeric signals (RAGE C2 domain (human) [1]): 33%
stoichiometry N (RAGE C2 domain (human) [1]): 2
fraction of dimeric peaks under denaturing conditions (RAGE C2 domain (human) [2]): 27%
stoichiometry N (RAGE C2 domain (human) [2]): 2
percent of the total signal in the dimer (RAGE C2 domain (human) [3]): > 65%
stoichiometry N (RAGE C2 domain (human) [3]): 2
stoichiometry N (RAGE C2 domain (human) [4]): 2

RAGE C2_TM_CT (C2 domain, transmembrane region and cytoplasmic tail) (domain or fragment)
stoichiometry N [5]: 2 and 4 and 6
stoichiometry N [6]: 2

RAGE C2_TM_CT Mutant 1 (four glycines in the region of the GxxxG motif mutated to alanine) (domain or fragment)
stoichiometry N [7]: 2 and 3

RAGE C2_TM_CT Mutant 2 (six amino acids that cover the GxxxG motif deleted) (domain or fragment)
stoichiometry N [8]: 2

RAGE V_C1 (V and C1 domains) (domain or fragment)
fraction of dimeric signals [9]: 12%
stoichiometry N [9]: 2

RAGE V_C1_C2 (extracellular part of RAGE) (domain or fragment)
fraction of dimers [10]: 11%
stoichiometry N [10]: 2
percent of the signal in the dimer peak [11]: 17%
stoichiometry N [11]: 2

full-length RAGE (receptor for advanced glycation end-products) (from UniProt Q15109 23-404)
stoichiometry N [12]: 2 and 3 and 4
stoichiometry N [13]: 2 and 3

Source: paper PMC6937306
